Measurements reported in patent publication US10590397B2 (priority 2017, dated 2020).
Where “and” joins values, the source holds several entries; their conditions need not be identical. Identical values can stand only once. Like-named read-outs stand apart in the source and are kept apart here.

Tests used:
[1] = DON as substrate; Michlmayr, et al., 2015; cited from earlier work
[2] = type: biochemical, Fusarium
[3] = type: biochemical, Fusarium; remark: listed apart in the source

Molecule | KM value compared to WT Os79 [2] | Km [3] | also measured
Os79 (protein, listed as Oryza sativa) MGSMSTPAASANGGQVLLLPFPAAQGHTNPMLQFGRRLAYHGLRPTLVTTRYVLSTTPPPGDPFRVAAISDGFDDASGMAALPDPGEYLRTLEAHGARTLAELLLSEARAGRPARVLVYDPHLPWARRVARAAGVATAAFLSQPCAVDLIYGEVCARRLALPVTPTDARGLYARGVLGVELGPDDVPPFVAAPELTPAFCEQSIEQFAGLEDDDDVLVNSFSDLEPKEAAYMESTWRAKTIGPSLPSFYLDDGRLRSNTAYGFNLFRSTVPCMEWLDKQPPRSVVLVSYGTVSTFDVAKLEELGNGLCNSGKPFLWVVRSNEEHKLSVQLRKKCEKRGLIVPFCPQLEVLAHKATGCFLSHCGWNSTLEAIVNGVPLVAMPHWADQPTISKYVESLWGMGVRVQLDKSGILQREEVERCIREVMDGDRKEDYRRNATRLMKKAKESMQEGGSSDKNIAEFAAKYSN |  |  | Km [1]: 230 µM; kcat [1]: 0.57 s⁻¹
Os79 A384S (protein, listed as Oryza sativa) MGSMSTPAASANGGQVLLLPFPAAQGHTNPMLQFGRRLAYHGLRPTLVTTRYVLSTTPPPGDPFRVAAISDGFDDASGMAALPDPGEYLRTLEAHGARTLAELLLSEARAGRPARVLVYDPHLPWARRVARAAGVATAAFLSQPCAVDLIYGEVCARRLALPVTPTDARGLYARGVLGVELGPDDVPPFVAAPELTPAFCEQSIEQFAGLEDDDDVLVNSFSDLEPKEAAYMESTWRAKTIGPSLPSFYLDDGRLRSNTAYGFNLFRSTVPCMEWLDKQPPRSVVLVSYGTVSTFDVAKLEELGNGLCNSGKPFLWVVRSNEEHKLSVQLRKKCEKRGLIVPFCPQLEVLAHKATGCFLSHCGWNSTLEAIVNGVPLVAMPHWSDQPTISKYVESLWGMGVRVQLDKSGILQREEVERCIREVMDGDRKEDYRRNATRLMKKAKESMQEGGSSDKNIAEFAAKYSN | similar |  | 
Os79 H122A/L123G (protein, listed as Oryza sativa) MGSMSTPAASANGGQVLLLPFPAAQGHTNPMLQFGRRLAYHGLRPTLVTTRYVLSTTPPPGDPFRVAAISDGFDDASGMAALPDPGEYLRTLEAHGARTLAELLLSEARAGRPARVLVYDPAGPWARRVARAAGVATAAFLSQPCAVDLIYGEVCARRLALPVTPTDARGLYARGVLGVELGPDDVPPFVAAPELTPAFCEQSIEQFAGLEDDDDVLVNSFSDLEPKEAAYMESTWRAKTIGPSLPSFYLDDGRLRSNTAYGFNLFRSTVPCMEWLDKQPPRSVVLVSYGTVSTFDVAKLEELGNGLCNSGKPFLWVVRSNEEHKLSVQLRKKCEKRGLIVPFCPQLEVLAHKATGCFLSHCGWNSTLEAIVNGVPLVAMPHWADQPTISKYVESLWGMGVRVQLDKSGILQREEVERCIREVMDGDRKEDYRRNATRLMKKAKESMQEGGSSDKNIAEFAAKYSN |  | 512 µM | Km ([2]; 23° C.): 2500 µM and 2510 µM
Os79 H122A/L123A (protein, listed as Oryza sativa) MGSMSTPAASANGGQVLLLPFPAAQGHTNPMLQFGRRLAYHGLRPTLVTTRYVLSTTPPPGDPFRVAAISDGFDDASGMAALPDPGEYLRTLEAHGARTLAELLLSEARAGRPARVLVYDPAAPWARRVARAAGVATAAFLSQPCAVDLIYGEVCARRLALPVTPTDARGLYARGVLGVELGPDDVPPFVAAPELTPAFCEQSIEQFAGLEDDDDVLVNSFSDLEPKEAAYMESTWRAKTIGPSLPSFYLDDGRLRSNTAYGFNLFRSTVPCMEWLDKQPPRSVVLVSYGTVSTFDVAKLEELGNGLCNSGKPFLWVVRSNEEHKLSVQLRKKCEKRGLIVPFCPQLEVLAHKATGCFLSHCGWNSTLEAIVNGVPLVAMPHWADQPTISKYVESLWGMGVRVQLDKSGILQREEVERCIREVMDGDRKEDYRRNATRLMKKAKESMQEGGSSDKNIAEFAAKYSN |  | 926 µM | kcat ([3]; 23° C.): 1.6 s⁻¹
Os79 Q202A (protein, listed as Oryza sativa) MGSMSTPAASANGGQVLLLPFPAAQGHTNPMLQFGRRLAYHGLRPTLVTTRYVLSTTPPPGDPFRVAAISDGFDDASGMAALPDPGEYLRTLEAHGARTLAELLLSEARAGRPARVLVYDPHLPWARRVARAAGVATAAFLSQPCAVDLIYGEVCARRLALPVTPTDARGLYARGVLGVELGPDDVPPFVAAPELTPAFCEASIEQFAGLEDDDDVLVNSFSDLEPKEAAYMESTWRAKTIGPSLPSFYLDDGRLRSNTAYGFNLFRSTVPCMEWLDKQPPRSVVLVSYGTVSTFDVAKLEELGNGLCNSGKPFLWVVRSNEEHKLSVQLRKKCEKRGLIVPFCPQLEVLAHKATGCFLSHCGWNSTLEAIVNGVPLVAMPHWADQPTISKYVESLWGMGVRVQLDKSGILQREEVERCIREVMDGDRKEDYRRNATRLMKKAKESMQEGGSSDKNIAEFAAKYSN | no significant difference |  | 
